This note sets out measurements from publication PMC7083938.

Several values for one entry are separate records, joined by “and”; a condition that tells them apart may be missing. Identical values can stand only once. Like-named read-outs stand apart in the source and are kept apart here.

In test [1] the target is mNELL2ΔCC (mouse). Put plainly: SPR; mNELL2 or mNELL2ΔCC (100 RU each, NHS-biotin) on a Biacore Series S SA chip; mRobo3 ECD or mRobo3 FN1 as analyte; regeneration with 10 mM EDTA; equilibrium analysis.
For test [2], the target named is mNELL2 (full length) (mouse). Put plainly: SEC; mNELL2 with excess mRobo3 FN1 on Superose 6 10/300; complex fractions quantified by fluorescent anti-His western blot against 1:1 standards. In general terms: Size exclusion chromatography separates by hydrodynamic size, large species first.
The target of test [3] is mNELL2 (full length) (mouse). As to the kind of experiment: SPR; mNELL2 or mNELL2ΔCC (100 RU each, NHS-biotin) on a Biacore Series S SA chip; mRobo3 ECD or mRobo3 FN1 as analyte; regeneration with 10 mM EDTA; equilibrium analysis. In general terms: In SPR one partner is held on a chip, and binding of the other changes the refractive index at the surface.
Test [4] deals with mNELL2ΔCC (mouse). The description is as above. This is another data set of the same source.
The next test has as its target mRobo1 FN1-3 (mouse) (UniProt O89026). Put plainly: SPR; mRobo1 FN1-3 (NHS-biotin on the N-terminal amine, 315 RU) on a Biacore SA chip; mNELL2 EGF1-6 as analyte; 25 °C, 10 mM HEPES pH 7.2, 150 mM NaCl, 0.05% Tween-20, 0.1% BSA; 1:1 Langmuir.
Test [5] has as its target mRobo1Robo3-FN1 ECD chimera (mouse) (UniProt O89026). As to the kind of experiment: SPR; mRobo3 ECD (167 RU) or mRobo1Robo3-FN1 ECD (177 RU), NHS-biotin, on a Biacore Series S SA chip; mNELL2 full length or mNELL2 EGF1-6 as analyte; regeneration with 10 mM EDTA; equilibrium, 1:1 model with a linear non-specific binding term.
The target in test [6] is mRobo3 ectodomain (mouse). Described as above.
The next test has as its target mRobo3 FN1-3 (mouse). Put plainly: SPR; biotinylated mRobo3 FN1-3 on a Biacore SA chip; mNELL2 EGF1-6 WT and mutants as analytes over the same channel; 20 s 10 mM EDTA pH 8, 150 mM NaCl between runs; 25 °C, 10 mM HEPES pH 7.2, 150 mM NaCl, 0.05% Tween-20, 0.1% BSA; equilibrium, 1:1 Langmuir.
The target of test [7] is mRobo1 ectodomain (mouse) (UniProt O89026). Put plainly: SPR; mRobo1 ectodomain on a CM5 chip by random amine coupling (~1,200 RU); mNELL2 as analyte; 25 °C, 10 mM HEPES pH 7.2, 150 mM NaCl, 0.05% Tween-20, 0.1% BSA; KD from equilibrium responses assuming 50 to 100% active surface.
Chain of mRobo1 ectodomain (mouse) (O89026 30-840): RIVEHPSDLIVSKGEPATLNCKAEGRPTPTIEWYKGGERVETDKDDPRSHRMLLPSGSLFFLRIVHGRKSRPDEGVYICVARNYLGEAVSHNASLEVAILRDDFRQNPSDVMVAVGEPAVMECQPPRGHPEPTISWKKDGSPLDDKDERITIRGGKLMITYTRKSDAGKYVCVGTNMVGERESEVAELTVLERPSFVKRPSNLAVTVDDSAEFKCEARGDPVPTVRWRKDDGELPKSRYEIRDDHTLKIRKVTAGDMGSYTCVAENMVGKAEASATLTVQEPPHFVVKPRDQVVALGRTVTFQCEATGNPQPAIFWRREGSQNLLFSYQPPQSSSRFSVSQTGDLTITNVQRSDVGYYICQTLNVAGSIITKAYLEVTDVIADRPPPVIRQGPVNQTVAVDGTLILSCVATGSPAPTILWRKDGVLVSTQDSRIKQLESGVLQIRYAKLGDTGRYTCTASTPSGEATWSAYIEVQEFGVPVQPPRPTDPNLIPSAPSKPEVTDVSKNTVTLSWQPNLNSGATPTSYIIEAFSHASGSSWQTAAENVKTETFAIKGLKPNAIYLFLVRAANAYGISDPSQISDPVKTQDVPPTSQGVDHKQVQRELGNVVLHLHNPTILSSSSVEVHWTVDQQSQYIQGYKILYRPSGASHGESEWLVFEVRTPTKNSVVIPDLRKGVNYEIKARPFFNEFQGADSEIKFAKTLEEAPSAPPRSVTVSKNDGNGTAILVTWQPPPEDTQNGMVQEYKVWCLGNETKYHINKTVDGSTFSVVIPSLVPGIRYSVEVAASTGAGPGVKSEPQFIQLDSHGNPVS
Test [8] has as its target mNELL2 (full length) (mouse). Put plainly: SEC-MALS; Superose 6 Increase 10/300 in HBS (10 mM HEPES pH 7.2, 150 mM NaCl), Wyatt HELEOS II.
In test [9] the target is mRobo1 ectodomain (mouse) (UniProt O89026). As to the kind of experiment: SPR; mRobo1 ectodomain on a CM5 chip by random amine coupling (~1,200 RU); mNELL2 as analyte; 25 °C, 10 mM HEPES pH 7.2, 150 mM NaCl, 0.05% Tween-20, 0.1% BSA; KD from equilibrium responses assuming 50 to 100% active surface. This is another data set of the same source.
Test [10] concerns the target biotinylated mouse Robo3 FN1–3 (Avi-tagged) (mouse) (UniProt Q9Z2I4). As to the kind of experiment: SPR; biotinylated mRobo3 FN1–3 captured on an SA chip (Biacore); mNELL2 EGF1–6 WT and mutants as analyte; 25 °C, 10 mM HEPES pH 7.2, 150 mM NaCl, 0.05% Tween-20, 0.1% BSA; 1:1 Langmuir isotherm.
Test [11] concerns the target NELL2, full length (Supplementary Fig. 9c; species not stated) (not stated (human or mouse cDNA cloned)) (UniProt Q99435). As to the kind of experiment: non-reducing SDS-PAGE; NELL2 and NELL2ΔCC on non-reducing (-DTT) and reducing (+DTT) SDS-PAGE; size from ladder standards.
In test [12] the target is full-ectodomain Robo surface (SPR with full-length NELL2 as analyte). Put plainly: SPR; mRobo3 ECD (167 RU) and mRobo1^Robo3-FN1 ECD (177 RU) biotinylated with NHS-Biotin and captured on a Biacore Series S SA chip; full-length mNELL2 as analyte; 1:1 Langmuir isotherm with a linear nonspecific-binding term; regeneration with 10 mM EDTA.

Chain of biotinylated mouse Robo3 FN1–3 (Avi-tagged) (mouse) (Q9Z2I4 558-869): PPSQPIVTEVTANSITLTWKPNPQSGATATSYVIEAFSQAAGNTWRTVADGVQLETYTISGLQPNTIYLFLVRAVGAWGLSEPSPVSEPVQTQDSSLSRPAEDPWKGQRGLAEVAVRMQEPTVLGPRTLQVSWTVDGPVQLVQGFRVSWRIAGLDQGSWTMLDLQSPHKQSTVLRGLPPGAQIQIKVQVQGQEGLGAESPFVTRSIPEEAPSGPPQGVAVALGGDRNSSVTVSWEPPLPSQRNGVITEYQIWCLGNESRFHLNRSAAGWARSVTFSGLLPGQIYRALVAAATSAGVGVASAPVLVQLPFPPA
Chain of mRobo1 FN1-3 (mouse) (O89026 519-840): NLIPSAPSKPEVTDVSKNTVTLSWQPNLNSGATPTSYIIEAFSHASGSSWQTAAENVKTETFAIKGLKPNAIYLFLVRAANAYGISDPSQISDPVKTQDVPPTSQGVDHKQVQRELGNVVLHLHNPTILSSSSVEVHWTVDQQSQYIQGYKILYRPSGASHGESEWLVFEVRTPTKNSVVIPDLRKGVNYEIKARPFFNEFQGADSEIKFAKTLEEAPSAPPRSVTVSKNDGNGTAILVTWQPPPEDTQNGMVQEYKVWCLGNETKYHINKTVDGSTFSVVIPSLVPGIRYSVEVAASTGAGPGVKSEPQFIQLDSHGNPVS
Chain of full-length mouse NELL2 (Q61220 25-819): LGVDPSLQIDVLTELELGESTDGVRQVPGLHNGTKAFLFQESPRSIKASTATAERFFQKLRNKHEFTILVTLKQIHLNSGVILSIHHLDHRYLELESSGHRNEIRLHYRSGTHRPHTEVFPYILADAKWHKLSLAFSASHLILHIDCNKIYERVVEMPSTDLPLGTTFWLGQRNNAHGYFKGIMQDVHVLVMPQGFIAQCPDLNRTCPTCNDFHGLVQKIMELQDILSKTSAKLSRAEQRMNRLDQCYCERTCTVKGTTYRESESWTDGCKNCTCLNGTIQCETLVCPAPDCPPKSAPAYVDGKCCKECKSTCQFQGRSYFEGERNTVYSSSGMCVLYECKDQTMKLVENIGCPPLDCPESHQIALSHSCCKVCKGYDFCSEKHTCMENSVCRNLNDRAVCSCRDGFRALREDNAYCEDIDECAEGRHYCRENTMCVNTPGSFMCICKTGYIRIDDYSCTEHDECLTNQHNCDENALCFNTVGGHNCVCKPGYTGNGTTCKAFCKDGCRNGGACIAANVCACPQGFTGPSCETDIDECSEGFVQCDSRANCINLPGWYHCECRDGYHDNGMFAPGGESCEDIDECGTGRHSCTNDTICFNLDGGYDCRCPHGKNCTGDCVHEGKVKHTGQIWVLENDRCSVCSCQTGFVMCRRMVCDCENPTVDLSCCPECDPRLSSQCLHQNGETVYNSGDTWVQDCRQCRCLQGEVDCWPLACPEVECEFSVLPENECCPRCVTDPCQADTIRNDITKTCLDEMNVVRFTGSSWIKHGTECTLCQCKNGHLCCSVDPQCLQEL

In general, Kd refers to a measure of binding affinity in units of concentration. In the case of mRobo3 FN1 (domain or fragment), the Kd with mNELL2ΔCC (mouse) [1] was 0.71 µM and 0.89 µM; in test [3] it was 0.51 µM; in the test with mNELL2ΔCC (mouse) [4], 0.72 µM. The stoichiometry N (mNELL2:mRobo3 FN1 (molar ratio)) in test [2] came out at 1.16.

mNELL2 EGF1-6 WT (domain or fragment): the dissociation constant (Kd) with mRobo1 FN1-3 (mouse) was 13.8 µM; in test [5] it was 1.7 µM; in test [6], 1.7 µM; in the test with mRobo3 FN1-3 (mouse) it was 0.71 µM.

On to “mNELL2 EGF1-6 V509A (domain or fragment)”, for which, in the test with mRobo3 FN1-3 (mouse), the dissociation constant (Kd) was 1.7 µM.

Usually stoichiometry N stands for the number of molecules, sites or subunits per partner or assembly. Consider mNELL2 (full length) (ligand), for which the Kd in test [7] is 350 µM; in test [9] it was above 100 µM; in [5], 0.47 µM; in test [6], 0.94 µM. The stoichiometry N in test [8] stood at 3.

In the test with mRobo3 FN1-3 (mouse), “mNELL2 EGF1-6 R452A (domain or fragment)” came in with a Kd of 1.7 µM.

In turn, “mouse NELL2 EGF1–6 R448A/Y450A (domain or fragment)” displayed a fold reduction of affinity against wild-type mNELL2 in test [10] of 120 fold.

mRobo3 ectodomain (domain or fragment): the dissociation constant (Kd) in test [3] was 0.89 µM; with mNELL2ΔCC (mouse) [4], 1.8 µM.

“mNELL2 EGF1-6 R448A/Y450A (domain or fragment)” gave a dissociation constant Kd with mRobo3 FN1-3 (mouse) of 87 µM.

“NELL2, full length (Supplementary Fig. 9c; species not stated) (from UniProt Q99435 22-816) (ligand)”: the stoichiometry N in test [11] came out at 3.

Substance “full-length mouse NELL2 (from UniProt Q61220 25-819) (ligand)” came in with a dissociation constant (Kd) in test [12] of 0.5 to 1 µM.

In [10], “mouse NELL2 EGF1–6 R452A (domain or fragment)” came in with a dissociation constant Kd of 1.7 µM and a fold reduction of affinity against wild-type mNELL2 of 2.4 fold.

As for “mouse NELL2 EGF1–6 V509A (domain or fragment)”, in [10], the Kd was 1.7 µM and the fold reduction of affinity against wild-type mNELL2 was 2.4 fold.

In [10], “mouse NELL2 EGF1–6 L498A/F500A (domain or fragment)” had a dissociation constant (Kd) above 100 µM and a fold reduction of affinity against wild-type mNELL2 of 500 fold.
